Experimental data: article PMC2217671

Substrate: NCCC[C@H](N)C(=O)O
Assay: purified protein
Conditions: 200 uM PLP, 12.5 mM DTT, 250 mM Tris pH 7.5, 37 °C, 0.002% BRIJ-35 added, enzyme unstable, low activity

B1: recombinant E. histolytica putative ornithine decarboxylase (ODC)-like protein (Entamoeba histolytica) (protein)
chain: MKQTSLEVKEFALNLISQFEPENQPLGFWIFDTEGVEKAVERWKKNMPTVRPCFAVKCNPEPHLVKLLGELGCGFDCASLNEIKEVLDLGFNPEDITYSQTFKPYNQLIEASHLGINHTIVDSIDEVQKIAKYAPKMGIMIRIMENDTSAGHVFGEKFGLHDDEVEIVLKEIKDKGLNLDGVHFHVGSDSHNSEVFTKALTKARNTVTLAEQFGMKPYLIDIGGGFSQVAPFEEFAATIEKTIKELEFPERTRFIAEPGRYMASNAFHLVSSLHGKRVRIQNGKKQIEYTSGDGLHGSFGCCIWFEKQKSCECITQKVNENTKMYESIIYGPSCNGSDKVATQELPEMEPGKDWLLFPNMGAYTISMATNFNGFEERNHVIYTLPLKSTKIIQIPKSIECNSVPSLNGIPHYA
B1 gave a Km of 1500 µM.
